# Laboratory results as given in patent US20030113711A1, “Protein kinase peptide substrate determination using peptide libraries” (priority 2001, published 2003).
# B1: ErbB-4 (Homo sapiens) (protein)
# chain: QSVCAGTENKLSSLSDLEQQYRALRKYYENCEVVMGNLEITSIEHNRDLSFLRSVREVTGYVLVALNQFRYLPLENLRIIRGTKLYEDRYALAIFLNYRKDGNFGLQELGLKNLTEILNGGVYVDQNKFLCYADTIHWQDIVRNPWPSNLTLVSTNGSSGCGRCHKSCTGRCWGPTENHCQTLTRTVCAEQCDGRCYGPYVSDCCHRECAGGCSGPKDTDCFACMNFNDSGACVTQCPQTFVYNPTTFQLEHNFNAKYTYGAFCVKKCPHNFVVDSSSCVRACPSSKMEVEENGIKMCKPCTDICPKACDGIGTGSLMSAQTVDSSNIDKFINCTKINGNLIFLVTGIHGDPYNAIEAIDPEKLNVFRTVREITGFLNIQSWPPNMTDFSVFSNLVTIGGRVLYSGLSLLILKQQGITSLQFQSLKEISAGNIYITDNSNLCYYHTINWTTLFSTINQRIVIRDNRKAENCTAEGMVCNHLCSSDGCWGPGPDQCLSCRRFSRGRICIESCNLYDGEFREFENGSICVECDPQCEKMEDGLLTCHGPGPDNCTKCSHFKDGPNCVEKCPDGLQGANSFIFKYADPDRECHPCHPNCTQGCNGPTSHDCIYYPWTGHSTLPQHARTPLIAAGVIGGLFILVIVGLTFAVYVRRKSIKKKRALRRFLETELVEPLTPSGTAPNQAQLRILKETELKRVKVLGSGAFGTVYKGIWVPEGETVKIPVAIKILNETTGPKANVEFMDEALIMASMDHPHLVRLLGVCLSPTIQLVTQLMPHGCLLEYVHEHKDNIGSQLLLNWCVQIAKGMMYLEERRLVHRDLAARNVLVKSPNHVKITDFGLARLLEGDEKEYNADGGKMPIKWMALECIHYRKFTHQSDVWSYGVTIWELMTFGGKPYDGIPTREIPDLLEKGERLPQPPICTIDVYMVMVKCWMIDADSRPKFKELAAEFSRMARDPQRYLVIQGDDRMKLPSPNDSKFFQNLLDEEDLEDMMDAEEYLVPQAFNIPPPIYTSRARIDSNRSEIGHSPPPAYTPMSGNQFVYRDGGFAAEQGVSVPYRAPTSTIPEAPVAQGATAEIFDDSCCNGTLRKPVAPHVQEDSSTQRYSADPTVFAPERSPRGELDEEGYMTPMRDKPKQEYLNPVEENPFVSRRKNGDLQALDNPEYHNASNGPPKAEDEYVNEPLYLNTFANTLGKAEYLKNNILSMPEKAKKAFDNPDYWNHSLPPRSTLQHPDYLQEYSTKYFYKQNGRIRPIVAENPEYLSEFSLKPGTVLPPPPYRHRNTVV
# What was measured:
# Type in all cases: biochemical
# [1] = substrate: CC[C@H](C)[C@H](NC(=O)[C@H](Cc1ccccc1)NC(=O)[C@H](Cc1c[nH]cn1)NC(=O)[C@H](Cc1ccc(O)cc1)NC(=O)[C@H](CCC(=O)O)NC(=O)[C@H](CCC(=O)O)NC(=O)[C@H](CCC(=O)O)NC(=O)[C@H](Cc1c[nH]cn1)NC(=O)[C@H](C)NC(=O)[C@H](CCCNC(=N)N)NC(=O)CCCCCNC(=O)CCCC[C@@H]1SC[C@@H]2NC(=O)N[C@@H]21)C(=O)N[C@@H](Cc1ccccc1)C(=O)N[C@@H](C)C(=O)N[C@@H](CCCCN)C(=O)N[C@@H](CCCCN)C(=O)N[C@@H](CCCCN)C(N)=O; experiment: Kinetic evaluation of peptide substrates, varying peptide at fixed ATP (phosphocellulose filter, [γ-33P]ATP); details: other: ErbB-4; Km for peptide; ATP concentration >10 × Km (200 μM ATP); pH 7.5; 23.0 °C
# Description: (§1) Peptide sequences identified as preferred substrates for ErbB-2 using the methods described in Laboratory Example 3 were synthesized. The kcat and Km values for each peptide were determined as follows, using the kinases ErbB-2, ErbB-4, and EGFR.
# (§2) Reactions were performed in 96-well polystyrene round bottom plates in a final volume of 45 μL. Reaction mixtures contained 50 mM MOPS, pH 7.5, 10 mM MnCl2, 1 mM dithiothreitol (DTT), 200 μM ATP, 1.0 μCi [γ-^33P] ATP, and varying concentrations of peptide. The reaction was initiated by adding the purified kinase of interest and halted after 10 minutes at 23° C. (room temperature) by adding 45 μL of 0.5% phosphoric acid in water. A 75 μL aliquot of the halted reaction mixture was then transferred to MAPH phosphocellulose filter plates (Millipore, Bedford, Mass.). The plates were filtered three times with 0.2 mL of 0.5 percent phosphoric acid. Scintillation cocktail (50 μL) was added to each well, and the plate was analyzed by counting in a Packard TOPCOUNT® scintillation counter (Packard Instrument Co., Meriden, Conn.). In these assays, the concentration of ATP was greater than ten-fold higher than the Km for ATP, which permitted the kinetic data to be treated as a pseudo-first-order reaction with varying peptide concentration. All experiments were performed in quadruplicate and the average value for each data point was analyzed. The Km and Vmax values were calculated by fitting the data to the Henri-Michaelis-Menten equation by non-linear regression using SIGMAPLOT® (SPSS Science, Chicago, Ill.). kcat values were calculated using the Vmax value, and are based on the protein concentration of the enzyme preparation and an estimate of purity determined from an evaluation of a Coomassie Blue stained SDS-polyacrylamide gel.
# [2] = substrate: CC[C@H](C)[C@H](NC(=O)[C@H](CCC(=O)O)NC(=O)[C@H](CCC(=O)O)NC(=O)[C@H](Cc1c[nH]cn1)NC(=O)[C@H](C)NC(=O)[C@H](CCCNC(=N)N)NC(=O)CCCCCNC(=O)CCCC[C@@H]1SC[C@@H]2NC(=O)N[C@@H]21)C(=O)N[C@@H](Cc1ccc(O)cc1)C(=O)N[C@@H](Cc1c[nH]cn1)C(=O)N[C@@H](Cc1ccccc1)C(=O)N[C@@H](Cc1ccccc1)C(=O)N[C@@H](Cc1ccccc1)C(=O)N[C@@H](C)C(=O)N[C@@H](CCCCN)C(=O)N[C@@H](CCCCN)C(=O)N[C@@H](CCCCN)C(N)=O; experiment: as above; details: other: ErbB-4; Km for peptide; ATP concentration >10 × Km (200 μM ATP); pH 7.5; 23.0 °C
# Description: as §1, §2
# [3] = substrate: C[C@H](NC(=O)[C@H](CCCNC(=N)N)NC(=O)CCCCCNC(=O)CCCC[C@@H]1SC[C@@H]2NC(=O)N[C@@H]21)C(=O)N[C@@H](Cc1c[nH]cn1)C(=O)N[C@@H](CCC(=O)O)C(=O)N[C@@H](CCC(=O)O)C(=O)N[C@@H](CCC(=O)O)C(=O)N[C@@H](Cc1ccc(O)cc1)C(=O)N[C@@H](Cc1c[nH]cn1)C(=O)N[C@@H](Cc1ccccc1)C(=O)N[C@@H](Cc1ccccc1)C(=O)N[C@@H](Cc1ccccc1)C(=O)N[C@@H](C)C(=O)N[C@@H](CCCCN)C(=O)N[C@@H](CCCCN)C(=O)N[C@@H](CCCCN)C(N)=O; experiment: as above; details: other: ErbB-4; Km for peptide; ATP concentration >10 × Km (200 μM ATP); pH 7.5; 23.0 °C
# Description: as §1, §2
# [4] = substrate: CC[C@H](C)[C@H](NC(=O)[C@H](CCC(=O)O)NC(=O)[C@H](Cc1c[nH]cn1)NC(=O)[C@H](Cc1c[nH]cn1)NC(=O)[C@H](C)NC(=O)[C@H](CCCNC(=N)N)NC(=O)CCCCCNC(=O)CCCC[C@@H]1SC[C@@H]2NC(=O)N[C@@H]21)C(=O)N[C@@H](Cc1ccc(O)cc1)C(=O)N[C@@H](Cc1c[nH]cn1)C(=O)N[C@@H](Cc1ccccc1)C(=O)N[C@@H](Cc1ccccc1)C(=O)N[C@@H](Cc1ccccc1)C(=O)N[C@@H](C)C(=O)N[C@@H](CCCCN)C(=O)N[C@@H](CCCCN)C(=O)N[C@@H](CCCCN)C(N)=O; experiment: as above; details: other: ErbB-4; Km for peptide; ATP concentration >10 × Km (200 μM ATP); pH 7.5; 23.0 °C
# Description: as §1, §2
# [5] = substrate: CC[C@H](C)[C@H](NC(=O)[C@H](CCC(=O)O)NC(=O)[C@H](CCC(=O)O)NC(=O)[C@H](Cc1c[nH]cn1)NC(=O)[C@H](C)NC(=O)[C@H](CCCNC(=N)N)NC(=O)CCCCCNC(=O)CCCC[C@@H]1SC[C@@H]2NC(=O)N[C@@H]21)C(=O)N[C@@H](Cc1ccc(O)cc1)C(=O)N[C@@H](Cc1c[nH]cn1)C(=O)N[C@@H](Cc1ccccc1)C(=O)N[C@@H](Cc1ccccc1)C(=O)N[C@@H](Cc1ccccc1)C(=O)N[C@@H](C)C(=O)N[C@@H](CCCCN)C(=O)N[C@@H](CCCCN)C(=O)N[C@@H](CCCCN)C(N)=O; experiment: Two-substrate kinetic comparison with known substrate, peptide and ATP varied simultaneously; details: other: ErbB-4; peptide and ATP concentrations varied simultaneously, two-substrate fit
# Description: (§3) In a separate experiment, the kinetic parameters of both peptide number 1 shown in Table 2, and a peptide with the sequence Biotin-Ahx-G-G-M-E-D-I-Y-F-E-F-M-G-G-K-K-K-amide (SEQ ID NO: 17), which has been previously identified as an ErbB-2 substrate (Jan et. al., (2000), Biochemistry 39: 9786-803), were determined and compared. In this experiment, both peptide and ATP concentrations were varied, and the resulting data was simultaneously fit to an equation representing a two-substrate enzyme reaction using SIGMAPLOT®. Data was collected using the kinases ErbB-2, ErbB-4, and EGFR. The results of this experiment are shown in Table 3 and indicate that for all three kinases tested, peptide number 1 shown in Table 2 is kinetically at least equivalent (based on kcat/Km values) to the known peptide substrate identified by Jan et al.
# [6] = substrate: CC[C@H](C)[C@H](NC(=O)[C@H](CC(=O)O)NC(=O)[C@H](CCC(=O)O)NC(=O)[C@H](CCSC)NC(=O)CNC(=O)CNC(=O)CCCCCNC(=O)CCCC[C@@H]1SC[C@@H]2NC(=O)N[C@@H]21)C(=O)N[C@@H](Cc1ccc(O)cc1)C(=O)N[C@@H](Cc1ccccc1)C(=O)N[C@@H](CCC(=O)O)C(=O)N[C@@H](Cc1ccccc1)C(=O)N[C@@H](CCSC)C(=O)NCC(=O)NCC(=O)N[C@@H](CCCCN)C(=O)N[C@@H](CCCCN)C(=O)N[C@@H](CCCCN)C(N)=O; experiment: as above; details: other: ErbB-4; peptide and ATP concentrations varied simultaneously, two-substrate fit
# Description: as §3
protein,measurement,setting,value
B1,Km,[1],12.5 µM
same,kcat,[1],0.0217 s⁻¹
same,kcat/Km,[1],1670 M⁻¹ s⁻¹
same,Km,[2],8 µM
same,kcat,[2],0.0683 s⁻¹
same,kcat/Km,[2],8500 M⁻¹ s⁻¹
same,Km,[3],6 µM
same,kcat,[3],0.015 s⁻¹
same,kcat/Km,[3],2500 M⁻¹ s⁻¹
same,Km,[4],37.6 µM
same,kcat,[4],0.0767 s⁻¹
same,kcat/Km,[4],2000 M⁻¹ s⁻¹
same,Km,[5],41 µM
same,kcat,[5],0.105 s⁻¹
same,kcat/Km,[5],2500 M⁻¹ s⁻¹
same,Km,[6],144 µM
same,kcat,[6],0.0767 s⁻¹
same,kcat/Km,[6],533 M⁻¹ s⁻¹
